The target of experiment [1] is T1, TNF-gamma-beta (Homo sapiens, UniProt O95150).
T1 construct: made in house; host or cells: E. coli (untagged) or 293T (FLAG-tagged)
T1 sequence (O95150 72-251): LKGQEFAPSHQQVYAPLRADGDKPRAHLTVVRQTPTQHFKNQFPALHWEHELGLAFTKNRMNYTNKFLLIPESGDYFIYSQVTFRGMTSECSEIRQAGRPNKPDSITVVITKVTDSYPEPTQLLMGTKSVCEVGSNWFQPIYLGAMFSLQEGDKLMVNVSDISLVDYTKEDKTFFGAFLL
Nature of the experiment: Inhibition of TNF-gamma-beta activation of NF-κB in 293T cells. It counts as cell-based. How it is done: To avoid spontaneous apoptosis or NF-κB activation accompanied with DR3 overexpression, a limited amount of DR3-expression DNA that by itself minimally activated these pathways was used.
293T cells were transiently transfected using LipofectAMINE and PLUS reagents according to the manufacturer's instruction (Invitrogen). For reporter assays, 293T cells, at 5×10^5 cells/well, were seeded in 6-well plates and transfected with a total of 1 microgram of DNA. pC4 DNA was used as filler DNA. Conditioned supernatant was collected 24 hr post-transfection and assayed for secreted alkaline phosphatase (SEAP) activity using the Phospha-Light™ chemiluminescent reporter gene assay system (Tropix). pCMV-lacZ was used as internal control for transfection efficiency normalization.

The target of experiment [2] is T1, TNF-gamma-beta. Nature of the experiment: Inhibition of TNF-gamma-beta-mediated IFNγ secretion from T cells. It counts as cell-based. The settings on record: costimulated T cells. How it is done:
The extent of the increase in IL-2 receptor expression is consistent with the moderate increase in IL-2 responsiveness compared with IL-2 itself.
1×10^5 cells/ml of purified T cells were seeded in a 24-well tissue culture plate that had been coated with anti-CD3 (0.3 microgram/ml) and anti-CD28 (5.0 microgram/ml) overnight at 4° C. […] ELISA assay for IFNγ, GM-CSF, IL-2 IL-4, IL-10 and TNFα were performed using kits purchased from R & D Systems. Recombinant human IL-2 (5 ng/ml) was used as a positive control. All samples were tested in duplicate and results were expressed as an average of duplicate samples plus or minus error.

Experiment [3] addresses T2, TNF-gamma-beta (Homo sapiens, UniProt O95150).
T2 construct: made in house; host or cells: 293T cells, transient transfection
T2 sequence (O95150 72-251 limits assumed): T1 sequence (O95150 72-251)
Nature of the experiment: Coimmunoprecipitation of TNF-gamma-beta by TNFR-Fc proteins. It is filed as binding. The text has this: The beads were then precipitated and washed extensively with PBST buffer (PBS, 0.5% Triton X-100) before boiled in SDS-sample buffer. Proteins were resolved on 4-20% Tris-Glycine gels (NOVEX), transferred to nitrocellulose membranes, and blotted with anti-Flag M2 monoclonal antibody (1 microgram/ml, Sigma) andhorseradish peroxidase (HRP)-conjugated goat anti-mouse IgG antibody (0.5 microgram/ml).

In experiment [4] the target is T1, TNF-gamma-beta. In words: Inhibition of TNF-gamma-beta induced caspase activation in TF-1 cells. It counts as cell-based. The settings on record: presence of cycloheximide. On the procedure: Briefly, cells growing in microtiter plates are induced to undergo apoptosis, causing an activation of caspase activities. Equal volume of a caspase substrate (Asp-Glu-Val-Asp-Rhodamine 110, or DEVD-R110) solution is then added and incubated for at least 1 hour. During this incubation, cells are being lysed and free R110 is released from the substrate. The level of free R110 is determined fluorimetrically, using a fluorescence reader with excitation filter 470-500 nm and emission filter 500-560 nm.
A black 96-well plate with a clear bottom is seeded with 75,000 TF-1 cells in RPMI containing 1% fetal bovine serum and micrograms/milliliter cyclohexamide. […] Following the manufacturer's directions, an equal volume of 1×substrate solution containing 50 micromolar DEVD-R110 diluted in incubation buffer is added to each well. The 96-well plates are then incubated for 2 hours after which the plate is read in a fluorescence reader with an excitation filter at 485 nm and an emission filter at 535 nm.
These solutions were then incubated for 1 hour at room temperature.
The reagents were incubated for 1 hour at RT to allow the formation of protein-TNF-gamma-beta complexes and then added to the cells. Caspase activity was measured as described above.

Experiment [5] concerns TNF-gamma on the cell surface. In words: FACS analysis of receptor-ligand binding on cells. On the procedure:
Consistent with the Northern blot analysis, peripheral blood mononuclear cells (PBMC) and human umbilical vein endothelial cells (HUVEC) express TNF-gamma on the cell surface by immunostaining with antibody to TNF-gamma. [Cells were collected by trypsinization or aspiration, and centrifuged at 1500-2000 rpm for 5 min. The cell pellets were resuspended and washed in 5 ml ice-cold PBS twice. The cells were incubated for 30 min at […] with antibody (10 mg/ml ) to TNF-gamma to detected expression of TNF-gamma on cell surface, with DR3-Fc or LTbR-Fc (10 mg/ml) for receptor and ligand binding in the binding buffer (HBSS containing 10% BSA, 20 mM HEPES, pH 7.2, 0.02% NaN3). […] Fluorescence was analyzed by a FACscan flow cytometer (Becton Dickinson, Mountain View, Calif.).] […] After incubation at 37° C. for 72 hr, the NF-kB activity was measured with luminometer at absorbance of 450 nm.]
Cells were collected by trypsinization or aspiration, and centrifuged at 1500-2000 rpm for 5 min. […] The cells were incubated for 30 min at 40° C. with antibody (10 mg/ml ) to TNF-gamma to detected expression of TNF-gamma on cell surface, with DR3-Fc or LTbR-Fc (10 mg/ml) for receptor and ligand binding in the binding buffer (HBSS containing 10% BSA, 20 mM HEPES, pH 7.2, 0.02% NaN3). […] Fluorescence was analyzed by a FACscan flow cytometer (Becton Dickinson, Mountain View, Calif.).
For orientation: Flow cytometry measures light scatter and fluorescence of single cells or particles in a stream.

The target of experiment [6] is T3, TNF-gamma-beta (Homo sapiens, UniProt O95150).
T3 construct: expressed in transfected cells
T3 sequence (O95150 1-251): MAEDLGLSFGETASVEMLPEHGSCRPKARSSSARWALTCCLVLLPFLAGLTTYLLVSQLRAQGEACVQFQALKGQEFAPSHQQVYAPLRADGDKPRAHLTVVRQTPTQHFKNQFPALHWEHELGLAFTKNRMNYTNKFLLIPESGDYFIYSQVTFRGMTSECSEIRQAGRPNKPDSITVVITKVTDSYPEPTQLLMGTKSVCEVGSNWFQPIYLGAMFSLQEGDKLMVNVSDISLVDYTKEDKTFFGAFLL
In words: FACS binding of receptor-Fc proteins to cells expressing full length TNF-gamma-beta. On the procedure: These cells were used to screen the Fc-fusion form of the extracellular domain of TNFR family members, including TNFR1, Fas, HveA, DR3, DR4, DR5, DR6, DcR1, DcR2, TR6, OPG, RANK, AITR, TAC1, CD40, and OX40. […] TR6 has been previously described as a decoy receptor (Pitti et al., Nature 396:699-703 (1998); Yu et al., J. Biol. Chem. 274:13733-6 (1999)) capable of competing with Fas and HveA for binding of FasL and LIGHT, respectively.
Cells resistant to 0.5 mg/ml Genticin (Invitrogen) were selected and expanded. Expression of TNF-gamma-beta mRNA was confirmed by quantitative RT-PCR analysis and surface expression of TNF-gamma-beta protein confirmed by FACS analyses using TNF-gamma-beta monoclonal antibodies.
One million cells, in 0.1 ml of FACS buffer (PBS, 0.1% BSA, 0.1% NaN3), were incubated with 0.1-1 microgram of protein or antibody at RT for 15 min. The cells were washed with 3 ml of FACS buffer, reacted with biotinylated primary antibody, and stained with PE-conjugated secondary antibody at RT for 15 min. Cells were then washed again, resuspended in 0.5 microgram/ml of propidium iodide, and live cells were gated and analyzed on a FACScan using the CellQuest software (BD Biosciences).

Experiment [7] addresses T2, TNF-gamma-beta. Nature of the experiment: Neutralization of TNF-gamma-beta induced SEAP production in TF-1/SRE reporter cells. It is filed as cell-based. The note with it: TNF-gamma-beta at 200 ng/mL, TF1/SRE reporter cells. How it is done:
Briefly, a poly-D-lysine coated 96-well plate is seeded with TF-1/SRE-SEAP cells (in RPMI+0.2% Fetal bovine serum) at 75,000 cells per well. […] Again cells were incubated overnight. After overnight incubation, conditioned media were collected and SEAP activity was determined using the SEAP Reporter Gene Assay available from Roche Molecular Biochemicals (Indianapolis, Ind.) according to the manufacturer's directions. Briefly, Conditioned media were diluted 1:4 into dilution buffer. Samples were incubated at 65C for 30 minutes to eliminate contaminating AP activity usually present in culture medium. 25 microliters of the heat-inactivated samples were mixed with equal volume of inactivation buffer (containing a mixture of differential alkaline phosphatase inhibitors). Following a 5-minute incubation at room temperature, 50 uL of alkaline phosphatase substrate (CSPD) was added to each well. Chemiluminescence signal was read 10-15 minutes later using a luminometer.
These solutions were then incubated for 1 hour at room temperature. […] After the overnight incubation, the SEAP assay was performed as described above.
The premyeloid cell line TF-1 was stably transfected with SRE/SEAP (Signal Response Element/Secreted Alkaline Phosphatase) reporter plasmid that responds to the SRE signal transduction pathway.

Experiment [8] deals with adult bovine aortic endothelial (ABAE) cells. Nature of the experiment: In vitro angiogenesis assay (capillary-like tubes on collagen gels). It counts as cell-based. The note with it: control.
A further experiment deals with WEHI 164 cells. Nature of the experiment: Measurement of apoptosis (nucleosome ELISA). It counts as cell-based, mouse. The settings on record: increasing amounts (FIG. 12). On the procedure: In a first incubation step, anti-histone antibody was fixed adsorptively on the wall of a microtiter plate module. Subsequently, non-specific binding sites on the wall were saturated by treatment with incubation buffer (e.g., blocking solution). During the second incubation step, the nucleosomes contained in the WEHI 164 cell sample treated with the TNF-alpha, TNF-beta or bacterially-produced TNF-gamma were bound via their histone components to the immobilized anti-histone antibody. In the third incubation step, anti-DNA-peroxidase (POD) reacted with the DNA component of the nucleosomes. After removal of all unbound peroxidase conjugate by a washing step, the amount of peroxidase retained in the immunocomplex was determined spectrophotometrically using the substrate ABTS (2,2′-azino-di-[3-ethylbenzthiazoline sulfonate]). Anti-histone antibody reacted with the histones H1, H2A, H2B, H3, and H4 from the sample. Anti-DNA POD antibody bound to single- and double-stranded DNA. Therefore, the ELISA allowed the detection of mono- and oligonucleosomes and may be applied to measure apoptotic cell death. The level of cell death was measured by the amount of cytoplasmic histone-associated DNA fragments which was indicated by the ratio of the absorbances observed at 405 and 490 nm (A405/A490). […]
A general note: ELISA stands for enzyme-linked immunosorbent assay.

As for “DR3-Fc: recombinant receptor DR3-Fc fusion protein (Fc-extracellular domain of DR3) [reference compound]”, the “inhibition of TNF-gamma-beta activation of NF-κB” value with TNF-gamma-beta [1] was “specifically inhibited”. Moreover, the “inhibition of TNF-gamma-beta-mediated IFNγ secretion” value with TNF-gamma-beta [2] is listed as “able to inhibit”. In addition, in the experiment with TNF-gamma-beta [3], the “immunoprecipitation of TNF-gamma-beta” value is “specifically interacted with FLAG-TNF-gamma-beta”. Also, in the experiment with TNF-gamma-beta [4], the “inhibition of TNF-gamma-beta induced caspase activation” value is recorded as “inhibited by either DR3-Fc or TR6-Fc protein”. The “binding to HUVEC cells and PBMC” value in experiment [5] (FACS) was “also binds to HUVEC cells and PBMC”. In [5] (MC-38/TNF-gamma cells), the “binding to TNF-gamma-transfected tumor cells (FACS shift)” value is “indicating cell-surface binding between TNF-gamma and DR3”. Besides, in the experiment with TNF-gamma-beta [6], the “binding to cells expressing TNF-gamma-beta (FACS)” value was “bound efficiently”.

As to “DR3.Fc: extracellular domain of human DR3 (aa 1-199) fused to the Fc domain of human IgG1”, the “neutralization of TNF-gamma-beta SEAP activity by receptor-Fc” value with TNF-gamma-beta [7] is “interacts with TNF-gamma-beta”. For the same molecule, in the experiment with TNF-gamma-beta [1], the “inhibition of TNF-gamma-beta activation of NF-κB” value is “able to inhibit”. Moreover, the “immunoprecipitation of TNF-gamma-beta” value with TNF-gamma-beta [3] is reported as “can be used to immunoprecipitate TNF-gamma-beta”.

As to FGF-2: angiogenic factor FGF-2, in experiment [8], the “EC50 value to stimulate in vitro angiogenesis” value is “about 5 ng/ml” and the “concentration of maximum stimulatory effect on in vitro angiogenesis” value came to 10 ng/mL.

B1: TNF-beta: tumor necrosis factor beta (lymphotoxin), control cytokine (protein, UniProt P01374 35-205, looked up)
Lymphotoxin-alpha: LPGVGLTPSAAQTARQHPKMHLAHSTLKPAAHLIGDPSKQNSLLWRANTDRAFLQDGFSLSNNSLLVPTSGIYFVYSQVVFSGKAYSPKATSSPLYLAHEVQLFSSQYPFHVPLLSSQKMVYPGLQEPWLHSMYHGAAFQLTQGDQLSTHTDGIPHLVLSPSTVFFGAFAL
As to B1, the “apoptosis (cytoplasmic histone-associated DNA fragments, A405/A490)” value in the experiment with WEHI 164 cells is recorded as “also observed in the presence of increasing amounts”.

For the origin of these results see patent US20030129189A1, “Tumor necrosis factor-gamma” (priority 1994, published 2003).
